Assay results as given in patent US20150291667A1.

Target: T1, CdtA-CdtC heterodimer
T1 chain 1: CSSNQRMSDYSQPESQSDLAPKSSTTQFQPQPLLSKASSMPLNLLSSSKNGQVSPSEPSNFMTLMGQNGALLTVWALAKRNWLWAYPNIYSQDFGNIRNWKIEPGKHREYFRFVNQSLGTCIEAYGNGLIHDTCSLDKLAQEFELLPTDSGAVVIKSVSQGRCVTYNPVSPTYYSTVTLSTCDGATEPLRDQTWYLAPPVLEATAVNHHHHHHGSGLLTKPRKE
T1 chain 2: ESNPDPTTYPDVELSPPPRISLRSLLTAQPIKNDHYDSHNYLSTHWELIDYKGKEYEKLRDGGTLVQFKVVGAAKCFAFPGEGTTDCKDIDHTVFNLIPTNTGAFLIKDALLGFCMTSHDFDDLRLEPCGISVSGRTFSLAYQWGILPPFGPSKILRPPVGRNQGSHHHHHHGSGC

B1: CdtB/DNase I hybrid protein (protein)
chain: NLSDFKVATWNLQGSSAVNESKWNINVRQLLSGEQGADILMVQEAGSLPSSAVRTSRVIQHGGTPIEEYTWNLGTRSRPNMVYIYYSRLDVGANRVNLAIVSRRQADEAFIVHSDSSVLQSRPAVGIRIGTDVFFTVHAAPGDAVAEIDALYDVYLDVQEKWGLEDVMLMGDFNAGCSYVRPSQWSSIRLWTSPTFQWLIPDSADTTATPTHCAYDRIVVAGMLLRGAVVPDSALPFNFQAANGLSDQLAQAISDHYPVEVMLKHHHHHHHMLEDPAANKAQKK
- DNA nicking activity of reconstituted heterotrimer preparations (subunit protection): reconstituted heterotrimer preparations containing the CdtB/DNase I hybrid protein failed to convert supercoiled DNA to linear and relaxed forms
